According to patent publication US8722043B2, “Induction of p53 expression by neutralization of neuropilin-2 for the treatment of cancers” (Diaclone, priority 2008, dated 2014):

Columns and labels:
Type in all cases: cell-based, human
[1] = tested on: Colo320siRNA-ctrl cells; assay: Annexin V-APC apoptosis test with or without PFTα pretreatment; settings: 20 μg/ml, 5 h
Description: In order to correlate the induction of apoptosis with p53 expression, the Colo320siRNA-ctrl cells were pretreated for 18 h with a chemical inhibitor of p53, pifithrin-α, at a dose of 27 μM (PFTα, Sigma). After pretreatment, the cells are washed twice with 3 ml of PBS and placed in a 24-well plate, at a rate of 100 000 cells/well in 1 ml of RPMI-10% FCS. Non-pretreated cells are placed under the same conditions. The cells are incubated for 5 h with a control murine isotype antibody (BZ1) or ITAC-B1 at 20 μg/ml and the apoptosis is measured as described above.
FIG. 14 represents the results of the apoptosis-induction experiments carried out with the Colo320siRNA-ctrl cells pretreated or not pretreated with PFTα. The percentage of cells labelled with Annexin V-APC is indicated on the y-axis, the cell culture conditions are indicated on the x-axis (control consisting of medium, control consisting of medium supplemented with a control isotype antibody -BZ1-, test consisting of medium supplemented with the ITAC-B1 antibody). The results of the tests carried out with cells pretreated with PFTα are represented in light grey, those of the tests carried out with non-pretreated cells are represented in dark grey.

[2] = tested on: VEGFR1; assay: Western blotting of VEGFR1 phosphorylation; settings: 20 μg/ml, 24 hours; HT29-NRP-2 and Colo320^siRNA-ctrl cells; treated versus not treated
Description: (§1) The possible effect of the ITAC-B1 antibody on the degree of phosphorylation of a VEGF receptor (VEGFR1), and also on the phosphorylation of the AKT protein which is activated by means of the VEGF receptors, was studied on HT29-NRP-2 and Colo320^siRNA-ctrl tumour cells.
(§2) The cells were cultured for 24 hours in RPMI medium+10% FCS in the presence of the BZ1 control antibody at 20 μg/ml, of ITAC-B1 at 20 μg/ml or of 5-FU at 50 μg/ml. A “nontreated cell” control was added (“medium” control). The cells were then isolated and lysed, and the phosphorylation of VEGFR-1 and of AKT was evaluated by Western blotting on the cell protein extracts, using antibodies directed against nonphosphorylated VEGFR1 (anti-VEGFR1 rabbit polyclonal antibody) or phosphorylated VEGFR1 (anti-phospho-VEGFR1^Tyr1213 rabbit polyclonal antibody, R&D systems) or antibodies directed against nonphosphorylated AKT (rabbit polyclonal antibody C67E7, Cell Signaling technology) or phosphorylated AKT (anti-phospho-AKT^Ser473 rabbit polyclonal antibody DE-9, Cell Signaling technology). The results are represented in FIGS. 16 and 17.

[3] = tested on: AKT protein; assay: Western blotting of AKT and its phosphorylation; settings: 20 μg/ml, 24 hours; HT29-NRP-2 and Colo320^siRNA-ctrl cells; treated versus not treated
Description: as §1, §2

[4] = tested on: p53 protein; assay: Western blotting of p53 expression after antibody treatment; settings: 20 ng/ml, 48 hours
Description: The HT29, HT29-NRP-2, Colo320^siRNA-ctrl tumour cells and Colo320^siRNA-NRP-2 were exposed to 20 ng/ml of ITAC-B1 antibody or of control antibody, and cultured for 48 hours. After lysis of the cell lines, migration of the protein pellets obtained on a 10% polyacrylamide gel (10 μg of protein per well) and then transfer onto a PVDF membrane, the membrane was incubated overnight with the anti-p53 primary antibody (BD Biosciences, mouse anti-human p53) diluted to 1/500. After washing in TBS/0.1% Tween20, the membranes were incubated for 1 hour with an anti-mouse IgG-HRP secondary antibody diluted to 1/6000. The results are represented in FIG. 19.

B1: ITAC-B1: anti-human neuropilin-2 murine monoclonal antibody, VH SEQ ID No. 2, VL SEQ ID No. 4, produced by hybridoma CNCM 1-4054 (antibody, listed as Mus musculus, V domains shown)
VH: EVKLQESGAELVKPGASVKLSCTVSGFNIKDTYIHWVIQRPEQGLEWLGRIDPANGNTKYDPKFQGKATITADTSSNTAYLQLSSLTSEDTAVYYCARWAVVGDYWGQGTTLTVSS
VL: YCDHPLYKFLHVSAGDRVTITCKASQSVSDDVAWYQQKPGQSPKLLIYSASNRYTGVPDRFTGSGYGTDFTFTISTVQPEDLAVYFCQQDYSSPTFGSGTKLELK
In the case of B1, the “percentage of cells labelled with Annexin V-APC” value ([1]; cells pretreated 18 h with PFTα 27 μM) is reported as “approximately 28%”, the “percentage of cells labelled with Annexin V-APC” value ([1]; non-pretreated cells) is reported as 41% and the “phosphorylation status of VEGFR” value [2] is reported as “similar”. For the same molecule, the “amount of AKT and its phosphorylation status” value [3] was “similar”, the “expression of p53 in lines which express NRP-2” value ([4]; HT29-NRP-2 and Colo320^siRNA-ctrl) was “partly restores the expression of p53” and the “expression of p53 in lines which do not express NRP-2” value ([4]; HT29-ctrl and Colo320^siRNA-NRP-2, with or without antibody) was “strongly expressed”.
